Publication PMC10720262 (Cell Reports, 2023)
Substitutions are numbered along the chain they refer to.

B1: CL-513691 (antibody, V domains shown)
VH: QVQLVESGGDVVQTGRSLRLSCAASGFTFSNYGMHWVRQAPDKGLEWVAIIWYDGSNKFYADSVKGRFTISRDNSKNTLYLHIHSLRAEDTAVYYCARDDRGDSAGPYFVYWGQGTLVTVSS
VL: EIVMTQSPATLSVSPGERATLSCRASQSVSDNLAWYQQRPGQAPRLLIYGASIRATGIPARFGGSGSGTEFTLTISILQSADFAVYYCQQHDSWPWTFGQGTKVEIK
B2: CL-513808 (antibody, V domains shown)
VH: B1 VH with D10G, T14P, D42G, H82Q, I83M, H84N, D103H, A105Y, V110D, Y111F
VL: B1 VL with D31S, R39K, G63S, A81E, H91C, D92N, S93N
B3: CL-513462 (antibody, V domains shown)
VH: QVQLVESGGGVVQPGRSLRVSCAASGFTFSNYGMYWVRQAPGKGLEWVAVIWHDGTNKFYEDSVKGRFTISRDNSKNTLYLQMNSLRAEDTAVYYCARAGYFQGSGSFLDYWGQGTLVTVSS
VL: DIQMTQSPSTLSASVGDRVTITCRASQSISSWLAWYQQKPGKAPKLLIYKASSLESGVPSRFSGSGSGTEFTLTISSLQPDDFATYFCQQYSSYWTFGQGTKVEIK
B4: CL-513809 (antibody, V domains shown)
VH: QVQLVESGGGVVQPGRSLRLSCAASGFIFSNYGMYWVRQTPDKGLEWVALIWYDGNNKFYSDSVKGRFTVSRDNSKNTLYLQMNSLRDEDTALYYCARAGYFYGSGSSLDKWGQGTLVTVSS
VL: B3 VL with T20S, S31I, F87Y, S92N
B5: CL-514146 (antibody, V domains shown)
VH: QVQLVESGGGVVQPGRSLRLSCAVSGFTFSNSGMHWVRQAPGKGLEWVAIIWYDGNNKFYADSVKGRFTISRDNSKNTLYLQMNSLRAEDTSIYYCARAYPSGNYGDKYGMDVWGQGTTVTVSS
VL: B3 VL with Y36F, K42N, S76N, F87Y, S92N, Y94F
B6: CL-513701 (antibody, V domains shown)
VH: QVQLVESGGGVVQTGRSLRLSCTASGFIFSNYGMYWVRQAPGKGLEWVALIWYDGSNKYYVDSVKGRFTISRDNSKNTLYLQMNSLRAEDTAVYYCARAGKYSGSGSYLDSWGQGTLVTVSS
VL: B3 VL with T10S, L11V, S28G, K50T, E55Q, E70D, S93R
B7: CL-513617 (antibody, V domains shown)
VH: B4 VH with N56G
VL: B3 VL with T20S, S31I, T72S, F87Y, S92N, S93R
B8: CL-513780 (antibody, V domains shown)
VH: B6 VH with T14P, E46D, D62G
VL: B3 VL with Q6P, T10I, S28N, S92Y
B9: CL-514174 (antibody, V domains shown)
VH: B5 VH with A23V, V24A, N31G, A40S, N56S, K65Q, A88V, S92G, I93V, P101L
VL: B3 VL with Y36F, S76N, S92N, S93Y
B10: CL-514716 (antibody, V domains shown)
VH: QIQLVESGGGVVQPGRSLRLSCAASGFTFSTYGMHWVRQAPGKGLEWVAVIWYDGSNKYYADSVQGRFTISRDNSKNTLYLQMNSLRAEDTAIYYCTTVGPIPFDYWGQGTLVTVSS
VL: DIVMTQTPLSSPVILGQPASISCRSSQSLVHSSGNTYLSWLQQRPGQPPRLLIYKTFKRLSGVPDRFSGSGAGTDFTLKISRVEAEDVGVYYCLQSTQFPLTFGGGTKVEIK

Molecular target: recombinant full-length PfCSP (Plasmodium falciparum circumsporozoite protein, strain NF54) (Plasmodium falciparum NF54, UniProt P19597)
Sequence (P19597 20-375): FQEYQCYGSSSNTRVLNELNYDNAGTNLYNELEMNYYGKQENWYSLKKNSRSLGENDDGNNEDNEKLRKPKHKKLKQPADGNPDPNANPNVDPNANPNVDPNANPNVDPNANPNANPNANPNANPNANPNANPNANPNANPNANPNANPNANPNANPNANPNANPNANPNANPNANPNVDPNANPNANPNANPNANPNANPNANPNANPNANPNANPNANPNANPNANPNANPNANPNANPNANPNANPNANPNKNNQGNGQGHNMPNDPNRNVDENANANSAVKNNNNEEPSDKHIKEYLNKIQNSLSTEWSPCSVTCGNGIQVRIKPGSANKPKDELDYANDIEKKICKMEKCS

Binder | binding result
B1 | binds
B2 | binds
B3 | binds
B4 | binds
B5 | binds
B6 | binds
B7 | binds
B8 | binds
B9 | binds
B10 | binds
